Experimental data taken from US20210107983A1 (Boehringer Ingelheim, published 2021).
Substitutions are numbered along the chain they refer to.

B1: B7H6#14/CD3#3 (bispecific antibody, human IgG1, kappa, L234A L235A)
chain 1: DIQMTQSPSSLSASVGDRVTITCKASQNVGKYVAWYQQKPGKAPKSLIYSASNRYDGVPSRFSGSGSGTDFTLTISSLQPEDFATYFCQQYISYPLTFGAGTKLEIKRTVAAPSVFIFPPSDEQLKSGTASVVCLLNNFYPREAKVQWKVDNALQSGNSQESVTEQDSKDSTYSLSSTLTLSKADYEKHKVYACEVTHQGLSSPVTKSFNRGECGGGGSEGKSSGSGSESKSTEGKSSGSGSESKSTGGGGSQVQLVQSGAEVKKPGASVKVSCKASGYTFTNYWMNWMKQAPGQGLEWIGGIYLNGDSTDYNEKFKGKVTMTVDTSTSTVYMELSSLRSEDTAVYYCTRRGDYFGDFWGQGTLVTVSSASTKGPSVFPLAPSSKSTSGGTAALGCLVKDYFPEPVTVSWNSGALTSGVHTFPAVLQSSGLYSLSSVVTVPSSSLGTQTYICNVNHKPSNTKVDKRVEPKSCDKTHTCPPCPAPEAAGGPSVFLFPPKPKDTLMISRTPEVTCVVVDVSHEDPEVKFNWYVDGVEVHNAKTKPREEQYNSTYRVVSVLTVLHQDWLNGKEYKCKVSNKALPAPIEKTISKAKGQPREPQVYTLPPSREEMTKNQVSLWCLVKGFYPSDIAVEWESNGQPENNYKTTPPVLDSDGSFFLYSKLTVDKSRWQQGNVFSCSVMHEALHNHYTQKSLSLSPG
chain 2: not shown
notes: scFab-Fc heterodimer
B2: B7H6#16/CD3#1 (bispecific antibody, human IgG1, kappa, lambda, L234A L235A)
chain 1: B1 chain 1 with A84T, F87Y, N283S, K290R, I300M, N306S, D308E, K319R
chain 2: EAVVTQEPSLTVSPGGTVTLTCRSSTGAVTTSNYANWVQEKPGQLPRGLIGGTNKRAPWVPARFSGSLLGGKAALTLSGAQPEDEAEYFCALWYSNLWVFGGGTKLTVLGQPKAAPSVTLFPPSSEELQANKATLVCLISDFYPGAVKVAWKADGSPVNTGVETTTPSKQSNNKYAASSYLSLTPEQWKSHRSYSCQVTHEGSTVEKTVAPAECSGGGGSEGKSSGSGSESKSTEGKSSGSGSESKSTGGGGSEVQLVESGGGLVQPGGSLKLSCAASGFTFNTYAMNWVRQAPGKGLEWVARIRSKYNNYATYYADSVKDRFTISRDDSKNTAYLQMNNLKTEDTAVYYCVRHGNFGNSYVSWFAYWGQGTLVTVSAASTKGPSVFPLAPSSKSTSGGTAALGCLVKDYFPEPVTVSWNSGALTSGVHTFPAVLQSSGLYSLSSVVTVPSSSLGTQTYICNVNHKPSNTKVDKRVEPKSCDKTHTCPPCPAPEAAGGPSVFLFPPKPKDTLMISRTPEVTCVVVDVSHEDPEVKFNWYVDGVEVHNAKTKPREEQYNSTYRVVSVLTVLHQDWLNGKEYKCKVSNKALPAPIEKTISKAKGQPREPQVYTLPPSREEMTKNQVSLSCAVKGFYPSDIAVEWESNGQPENNYKTTPPVLDSDGSFFLVSKLTVDKSRWQQGNVFSCSVMHEALHNRFTQKSLSLSPG
notes: scFab-Fc heterodimer, one B7H6 chain and one CD3 chain
B3: B7H6#20/CD3#1 (bispecific antibody, human IgG1, kappa, lambda, L234A L235A)
chain 1: B1 chain 1 with G57A, A84T, F87Y, N283S, M289V, I300M, N306S, V320A
chain 2: B2 chain 2
notes: as for B2
B4: B7H6#18/CD3#1 (bispecific antibody, human IgG1, kappa, lambda, L234A L235A)
chain 1: B1 chain 1 with G57A, A84T, F87Y, N283S, K290R, I300M, N306S, K319R
chain 2: B2 chain 2
notes: as for B2
B5: B7H6#19/CD3#1 (bispecific antibody, human IgG1, kappa, lambda, L234A L235A)
chain 1: B1 chain 1 with A84T, F87Y, N283S, M289V, I300M, N306S, D308E, V320A
chain 2: B2 chain 2
notes: as for B2
B6: B7H6#23/CD3#1 (bispecific antibody, human IgG1, kappa, lambda, L234A L235A)
chain 1: B1 chain 1 with G57A, N283S, N306S, D308E
chain 2: B2 chain 2
notes: as for B2
B7: B7H6#14/CD3#5 (bispecific antibody, human IgG1, kappa, L234A L235A)
chain 1: B1 chain 1
chain 2: not shown
notes: scFab-Fc heterodimer
B8: B7H6#24/CD3#1 (bispecific antibody, human IgG1, kappa, lambda, L234A L235A)
chain 1: B1 chain 1 with G57A, A84T, F87Y, K290R, I300M, N306S, K319R
chain 2: B2 chain 2
notes: as for B2
B9: B7H6#22/CD3#1 (bispecific antibody, human IgG1, kappa, lambda, L234A L235A)
chain 1: B1 chain 1 with G57A, N283S, N306S
chain 2: B2 chain 2
notes: as for B2
B10: B7H6#21/CD3#1 (bispecific antibody, human IgG1, kappa, lambda, L234A L235A)
chain 1: B1 chain 1 with N283S, N306S, D308E
chain 2: B2 chain 2
notes: as for B2

Target: T1, Cyno B7H6-His (cynomolgus monkey)
T1 construct: also called CyB7H6; cyB7-H6
T1 chain: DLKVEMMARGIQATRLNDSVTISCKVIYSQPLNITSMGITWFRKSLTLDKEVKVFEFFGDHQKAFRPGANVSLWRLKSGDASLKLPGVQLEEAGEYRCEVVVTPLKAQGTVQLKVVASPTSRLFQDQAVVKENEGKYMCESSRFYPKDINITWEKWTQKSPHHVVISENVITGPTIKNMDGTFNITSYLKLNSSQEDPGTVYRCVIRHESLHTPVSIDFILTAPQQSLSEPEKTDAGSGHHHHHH
Test: ratio of SPR KDs cyno/human
Procedure: (§1) About 700 RU of the B7H6/CD3 binding protein was captured on flow cell 2 of the Protein A/G surface for 60 s at a flow rate of 10 μL/min. The analytes HuB7H6, CyB7H6 and HuB7H1 were injected across both flow cells over captured B7H6/CD3 binding protein for 300 s at a flow rate of 30 μL/min with a dissociation of 1200 s. The concentrations of HuB7H6 and CyB7H6 were 0 nM, 6.25 nM, 12.5 nM, 25 nM, 50 nM and 100 nM. The concentrations of HuB7H1 were 0 nM and 1 μM. The surface was regenerated by injecting 10 mM glycine-HCl, pH 1.5 for 20 s at a flow rate of 30 μL/min across both flow cells.
(§2) The reference flow cell 1 (interactions with sensor surface) and blank (HBS-EP+ or 0 nM analyte) were subtracted from the raw data.
(§3) The B7H6/CD3 binding protein analyte was injected horizontally over the immobilized surface for 300 s at a flow rate of 30 μL/min with a dissociation of 600 s. The concentrations of the B7H6/CD3 binding protein used were 0 nM, 1.2 nM, 3.7 nM, 11.1 nM, 33.3 nM and 100 nM.

Binder | cy/hu B7-H6
B1 | 0.9
B2 | 2.3
B3 | 4.6
B4 | 2.3
B5 | 3.1
B6 | 0.9
B7 | 1.1
B8 | 1.7
B9 | 1
B10 | 0.4

Target: T2, Cyno CD3 E+G HuFc-6xHis (cynomolgus monkey)
T2 construct: also called CyCD3E+G-hFc; cyCD3
Test: ratio of SPR KDs cyno/human
Procedure: as §1, §2, §3

T2 sequence (chain, as listed by the source limits assumed): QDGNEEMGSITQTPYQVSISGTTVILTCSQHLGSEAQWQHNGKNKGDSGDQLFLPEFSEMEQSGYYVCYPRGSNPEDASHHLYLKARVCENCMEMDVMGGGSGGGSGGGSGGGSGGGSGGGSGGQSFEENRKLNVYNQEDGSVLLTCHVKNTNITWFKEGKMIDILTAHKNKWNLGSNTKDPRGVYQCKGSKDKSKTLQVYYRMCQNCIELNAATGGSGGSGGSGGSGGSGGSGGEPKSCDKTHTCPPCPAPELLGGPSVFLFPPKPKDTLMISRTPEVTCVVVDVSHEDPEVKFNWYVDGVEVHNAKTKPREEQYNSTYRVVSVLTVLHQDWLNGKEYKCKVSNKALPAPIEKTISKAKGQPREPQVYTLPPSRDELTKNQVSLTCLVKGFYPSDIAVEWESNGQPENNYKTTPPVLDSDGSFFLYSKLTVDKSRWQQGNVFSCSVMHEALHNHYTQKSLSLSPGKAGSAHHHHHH

Binder | cy/hu CD3
B1 | 1.5
B7 | 1.2

Target: T3, chicken egg white lysozyme (chicken, UniProt P00698 19-147)
T3 construct: unrelated positively charged protein, amine-coupled to the chip; also called Lysozyme (positive)
Test: SPR, 1 µM binder over immobilized lysozyme
Procedure: (§4) The experiment was performed on a Biacore® T200 SPR system (GE Healthcare Life Sciences). The dilution, surface preparation, and binding experiments were performed at 25° C. in 1×HBS-EP buffer prepared from 10×HBS-EP. The flow rate for both the immobilization protocol and binding experiment was at 5 μL/min.
(§5) To prepare the surface for the non-specific binding experiment, chicken egg white lysozyme and trypsin inhibitor from Glycine max soybean were coupled manually to a Biacore® series S CM5 sensor chip (GE Healthcare sciences) with the surface density of 3000-5000 RU using the amine coupling kit according to the manufacture instructions. Samples were prepared at 1 μM in 1×HBS-EP buffer. The samples were injected over activated surfaces with a 10 min association and 15 min dissociation. The data was collected using Biacore® T200 Control Software version 2.0.1 and analyzed using Biacore® T200 Evaluation Software version 3.0 (GE Healthcare Life Sciences).

T3 sequence (P00698 19-147): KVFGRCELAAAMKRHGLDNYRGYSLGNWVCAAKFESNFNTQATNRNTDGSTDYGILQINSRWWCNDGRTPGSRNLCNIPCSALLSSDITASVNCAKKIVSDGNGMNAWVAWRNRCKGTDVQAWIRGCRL

Binder | Non-specific binding (RU)
B1 | 12.4
B2 | 8.2
B3 | 9.8
B4 | 6.6
B5 | 8.2
B6 | 8.1
B7 | 16.2
B8 | 7.9
B9 | 7.8
B10 | 8.1

Target: T4, Human CD3 E+G HuFc-6xHis (human)
T4 construct: also called HuCD3E+G-hFc; huCD3
Test: SPR, CD3E+G-hFc immobilized, binder analyte
Procedure: (§6) To determine the affinity of the B7H6/CD3 binding protein to human and cyno CD3E+G-hFc, the experiment was performed on a Bio-Rad ProteOn™ XPR36 instrument. Briefly, HuCD3E+G-hFc and CyCD3E+G were amine-coupled on a ProteOn™ GLM sensor chip (Bio-Rad) and the B7H6/CD3 binding protein was flowed over the immobilized surface. The running buffer for this experiment and all serial dilutions were prepared in HBS-EP+. The GLM sensor chip was normalized according to Bio-Rad's recommendations. The sensor chip was activated with an equal mixture of EDC/s-NHS in the horizontal direction for 300 s at a flow rate of 30 μL/min HuCD3E+G-hFc was immobilized in the vertical direction at 0.4 μg/mL, 0.2 μg/mL and 0.1 μg/mL in 10 mM acetate pH 4.5 to L1, L2 and L3, respectively, for 300 s at a flow rate of 30 μL/min resulting in about 100 RU of HuCD3E+G-hFc on L1, 40 RU of HuCD3E+G-hFc on L2 and 0 RU of HuCD3E+G-hFc on L3. CyCD3E+G-hFc was immobilized in the vertical direction at 0.4 μg/mL, 0.2 μg/mL and 0.1 μg/mL in 10 mM acetate pH 4.5 to L4, L5 and L6, respectively, for 300 s at a flow rate of 30 μL/min resulting in about 385 RU of […], 170 RU of CyCD3E+G-hFc on L5 and 50 RU of CyCD3E+G-hFc on L6. The sensor chip was deactivated with 1M ethanolamine-HCl in the horizontal direction for 300 s at a flow rate of 30 μL/min.
as §3
(§7) The interspot (interactions with sensor surface) and blank (HBS-EP+ or 0 nM analyte) were subtracted from the raw data.

T4 sequence (chain, as listed by the source limits assumed): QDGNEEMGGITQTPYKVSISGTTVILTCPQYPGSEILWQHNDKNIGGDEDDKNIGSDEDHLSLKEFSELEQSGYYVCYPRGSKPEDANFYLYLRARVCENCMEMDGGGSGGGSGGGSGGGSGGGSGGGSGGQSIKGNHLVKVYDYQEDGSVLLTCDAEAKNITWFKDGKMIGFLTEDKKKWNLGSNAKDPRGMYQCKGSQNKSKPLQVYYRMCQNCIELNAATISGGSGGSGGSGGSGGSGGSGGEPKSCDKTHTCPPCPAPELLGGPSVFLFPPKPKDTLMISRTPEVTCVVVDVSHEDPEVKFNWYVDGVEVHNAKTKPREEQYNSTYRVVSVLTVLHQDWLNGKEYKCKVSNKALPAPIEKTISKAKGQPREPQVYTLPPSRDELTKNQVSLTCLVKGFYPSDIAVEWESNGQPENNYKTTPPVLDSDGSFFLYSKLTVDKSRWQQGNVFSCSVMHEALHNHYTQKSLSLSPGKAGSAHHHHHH

Binder | Kd [nM]
B1 | 4.8
B2 | 3.7
B3 | 4
B4 | 3.9
B5 | 4
B6 | 5.5
B7 | 4.3
B8 | 7.8
B9 | 5.1
B10 | 4.4

Target: T2, Cyno CD3 E+G HuFc-6xHis
Test: SPR, CD3E+G-hFc immobilized, binder analyte
Procedure: as §6, §3, §7

Binder | Kd [nM]
B1 | 7.1
B7 | 5.2

Target: T1, Cyno B7H6-His
Test: SPR, binder captured on Protein A/G, B7H6 analyte
Procedure: (§8) To determine the affinity of human and cyno B7H6 and human B7H1 to B7H6/CD3 binding proteins, the experiment was performed on a Biacore™ 8K instrument (GE Healthcare Life Sciences). Briefly, the B7H6/CD3 binding protein was captured via Protein A/G. The running buffer for this experiment and all serial dilutions were prepared in HBS-EP+. The CM5 sensor chip was activated with an equal mixture of EDC/NHS across both flow cells for 420 s at a flow rate of 10 μL/min and immobilized with recombinant Protein A/G (50 μg/ml in 10 mM NaOAc, pH 4.5) across all flow cells for 420 s at a flow rate of 10 μL/min resulting in about 2500 RU of Protein A/G on the surface. The sensor chip was deactivated with 1M ethanolamine-HCl across all flow cells for 420 s at a flow rate of 10 μL/min.
as §1, §2

Binder | Kd [nM]
B1 | 1.1
B2 | 7.2
B3 | 4.9
B4 | 3.3
B5 | 5.1
B6 | 1.2
B7 | 1
B8 | 3.1
B9 | 1.4
B10 | 1.4

Target: T5, Human B7H1 (human, UniProt Q9NZQ7 20-239)
T5 construct: also called HuB7H1; huB7-H1
Test: SPR, binder captured on Protein A/G, HuB7H1 analyte
Procedure: as §8, §1, §2

T5 sequence (Q9NZQ7 other isoform, or with tags, fused parts or gaps limits assumed): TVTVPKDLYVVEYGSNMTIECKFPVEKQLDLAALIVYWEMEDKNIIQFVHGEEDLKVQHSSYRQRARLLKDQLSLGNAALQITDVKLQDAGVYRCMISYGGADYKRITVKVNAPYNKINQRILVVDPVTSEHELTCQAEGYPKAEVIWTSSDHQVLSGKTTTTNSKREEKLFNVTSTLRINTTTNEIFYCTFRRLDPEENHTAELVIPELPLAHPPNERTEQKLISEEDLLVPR

Binder | binding result
B1 | no binding (tested: 1 µM)
B2 | no binding (tested: 1 µM)
B3 | no binding (tested: 1 µM)
B4 | no binding (tested: 1 µM)
B5 | no binding (tested: 1 µM)
B6 | no binding (tested: 1 µM)
B7 | no binding (tested: 1 µM)
B8 | no binding (tested: 1 µM)
B9 | no binding (tested: 1 µM)
B10 | no binding (tested: 1 µM)

Target: T6, trypsin inhibitor from Glycine max soybean (Glycine max (soybean))
T6 construct: unrelated negatively charged protein, amine-coupled to the chip
Test: SPR, 1 µM binder over immobilized trypsin inhibitor
Procedure: as §4, §5

T6 sequence (P01070 25-205): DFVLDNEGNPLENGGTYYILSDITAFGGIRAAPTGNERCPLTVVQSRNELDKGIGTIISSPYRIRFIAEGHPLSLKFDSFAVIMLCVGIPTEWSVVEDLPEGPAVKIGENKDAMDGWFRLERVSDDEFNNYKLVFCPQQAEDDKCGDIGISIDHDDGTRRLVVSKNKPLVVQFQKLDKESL

Binder | Non-specific binding (RU)
B1 | 26.4
B2 | 42.6
B3 | 48.4
B4 | 32.8
B5 | 40.3
B6 | 45.7
B7 | 110
B8 | 43.5
B9 | 39.5
B10 | 42
